The target of this data set is ΔNCL (DelNucleolin) (UniProt P19338 284-710, del1-283). The experiment in a line: SPR. Background: Surface plasmon resonance follows binding to a sensor surface in real time, without labels.
Sequence of ΔNCL (DelNucleolin) (P19338 284-710, stated change not applied): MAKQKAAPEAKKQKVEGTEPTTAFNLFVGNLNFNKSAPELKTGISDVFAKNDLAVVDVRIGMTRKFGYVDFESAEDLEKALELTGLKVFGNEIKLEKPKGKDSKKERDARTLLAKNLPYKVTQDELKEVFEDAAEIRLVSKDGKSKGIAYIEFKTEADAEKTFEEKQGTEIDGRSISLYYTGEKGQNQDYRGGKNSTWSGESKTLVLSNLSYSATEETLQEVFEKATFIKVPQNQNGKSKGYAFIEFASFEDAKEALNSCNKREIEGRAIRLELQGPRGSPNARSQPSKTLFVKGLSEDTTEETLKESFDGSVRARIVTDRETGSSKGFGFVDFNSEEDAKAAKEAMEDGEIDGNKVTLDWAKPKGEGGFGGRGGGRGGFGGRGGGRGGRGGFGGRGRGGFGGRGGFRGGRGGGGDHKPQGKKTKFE

B1: Q2 (biotinylated, SPR) (structured_RNA)
RNA: UUUUUCCUGGAAUUUGGAGGGAUGGGAGGAGGGGGUGGGGCUUACUUGUUGUAGCUU
In turn, B1 returned a Kd of 4 nM.

B2: Q3 (biotinylated, SPR) (structured_RNA)
RNA: CUCAAGCGGUGCUUGAAGGGGAGGGAAAGCGGGAAAGCGGGCAACCACUUUUCCCUAGC
B2 gave a Kd of 15 nM.

For orientation: Kd means a measure of binding affinity in units of concentration.

The record behind these values is PMC11314421.
